The record followed here is paper PMC10904395, “The Deinococcus protease PprI senses DNA damage by directly interacting with single-stranded DNA”.

The data set deals with T1, DG-PprI patch 1 mutant (Deinococcus geothermalis, UniProt Q1J1D6 1-289, R85A;R207A;R267A).
T1 sequence: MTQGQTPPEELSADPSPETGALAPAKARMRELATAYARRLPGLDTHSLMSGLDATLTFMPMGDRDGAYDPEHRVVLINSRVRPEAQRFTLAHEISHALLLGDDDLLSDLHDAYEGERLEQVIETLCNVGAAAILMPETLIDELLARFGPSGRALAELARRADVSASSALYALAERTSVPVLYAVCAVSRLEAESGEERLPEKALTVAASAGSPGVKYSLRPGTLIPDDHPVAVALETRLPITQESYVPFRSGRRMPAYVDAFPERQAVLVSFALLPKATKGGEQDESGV
Kind of data set: EMSA; EMSA: 150 mM NaCl, 20 mM Tris-HCl pH 8.0, 0.1 mg/ml BSA, 0.1 uM FAM-labeled nucleic acid, 0/1/2 uM protein, room temperature 30 min, 10% native PAGE in 1x TB. The settings on record: protein: recombinant; label: 5' FAM.

For CGCTCTTCGCCATTCTCTTGAAGTTTCAAACTTGG (ssDNA) [35nt ssDNA], the binding result is given as “no binding”.
